Among the data in ChEMBL document CHEMBL5046279, “Discovery of a Partial Glucokinase Activator Clinical Candidate: Diethyl ((3-(3-((5-(Azetidine-1-carbonyl)pyrazin-2-yl)oxy)-5-isopropoxybenzamido)-1H-pyrazol-1-yl)methyl)phosphonate (BMS-820132)” (J Med Chem, 2022) are Km values, retold here.

Substrate in the series: CCOP(=O)(Cc1csc(NC(=O)c2cc(Oc3ccc(S(C)(=O)=O)cc3)cc(O[C@@H](C)COC)c2)n1)OCC
Particulars: Homo sapiens; filed as activator.

Description: Activation of human glucokinase assessed as decrease in glucose Km

B1: Hexokinase-4 (Homo sapiens), P35557 (protein)
chain: MLDDRARMEAAKKEKVEQILAEFQLQEEDLKKVMRRMQKEMDRGLRLETHEEASVKMLPTYVRSTPEGSEVGDFLSLDLGGTNFRVMLVKVGEGEEGQWSVKTKHQMYSIPEDAMTGTAEMLFDYISECISDFLDKHQMKHKKLPLGFTFSFPVRHEDIDKGILLNWTKGFKASGAEGNNVVGLLRDAIKRRGDFEMDVVAMVNDTVATMISCYYEDHQCEVGMIVGTGCNACYMEEMQNVELVEGDEGRMCVNTEWGAFGDSGELDEFLLEYDRLVDESSANPGQQLYEKLIGGKYMGELVRLVLLRLVDENLLFHGEASEQLRTRGAFETRFVSQVESDTGDRKQIYNILSTLGLRPSTTDCDIVRRACESVSTRAAHMCSAGLAGVINRMRESRSEDVMRITVGVDGSVYKLHPSFKERFHASVRRLTPSCEITFIESEEGSGRGAALVSAVACKKACMLGQ
As to B1, the Km came to 2400 µM.
